Data from doi:10.1101/2022.09.26.509487, “DNA methylation at a single cytosine embedded in the W-box cis-element repels binding of WRKY transcription factors through steric hindrance”.

T1: AtWRKY40 DBD (Arabidopsis thaliana, UniProt Q9SAH7 131-207)
T1 sequence: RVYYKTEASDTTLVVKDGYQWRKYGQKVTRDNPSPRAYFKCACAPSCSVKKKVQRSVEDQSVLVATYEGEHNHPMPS


biological target: T1, AtWRKY40 DBD; assay: BLI; steady state; BLI (Octet RED96e, SA sensors): 50 mM Hepes pH 7, 150 mM NaCl, 0.05% Tween20, 25 C, 1000 rpm; duplex loaded at 40 nM, protein 0.25-10 uM; settings: protein: recombinant; tags: N-terminal 6xHis (pET28a); label: biotin on forward strand (printed at 5' end); blunt

Row | Binder | Kd [µM]
1 | RLP43 W-box, unmethylated (dsDNA) DNA 1: CGTAGGGTCAAGCTGT DNA 2: ACAGCTTGACCCTACG | 0.63
2 | RLP43 W-box 5mC4 + 5mC1 5mC2 (dsDNA, 5-methyl-dC at forward position 9 (C4) and reverse positions 10 and 11 (C2, C1)) DNA 1: CGTAGGGTCAAGCTGT DNA 2: ACAGCTTGACCCTACG | 9.2
3 | RLP43 W-box 5mC4 (dsDNA, 5-methyl-dC at forward strand position 9 (W-box C4)) DNA 1: CGTAGGGTCAAGCTGT DNA 2: ACAGCTTGACCCTACG | 12
